Laboratory results from patent US20240010723A1 (IBEX BIOSCIENCES, published 2024).

T1: Murine CD147 (Uniprot P18572), recombinant protein (murine (mouse), UniProt P18572 22-325, limits assumed)
T1 construct: also called mCD147; mouse CD147
T1 sequence: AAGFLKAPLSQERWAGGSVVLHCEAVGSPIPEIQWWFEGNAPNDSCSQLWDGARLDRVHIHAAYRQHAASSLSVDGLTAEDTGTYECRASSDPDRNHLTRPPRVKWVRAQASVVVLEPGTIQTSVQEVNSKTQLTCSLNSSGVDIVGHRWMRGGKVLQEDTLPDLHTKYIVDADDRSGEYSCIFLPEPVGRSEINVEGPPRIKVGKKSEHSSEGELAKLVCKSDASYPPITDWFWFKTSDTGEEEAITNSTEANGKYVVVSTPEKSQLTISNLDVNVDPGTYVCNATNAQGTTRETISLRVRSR

T2: Human CD147 (Uniprot P35613), recombinant protein (UniProt P35613 138-325)
T2 chain: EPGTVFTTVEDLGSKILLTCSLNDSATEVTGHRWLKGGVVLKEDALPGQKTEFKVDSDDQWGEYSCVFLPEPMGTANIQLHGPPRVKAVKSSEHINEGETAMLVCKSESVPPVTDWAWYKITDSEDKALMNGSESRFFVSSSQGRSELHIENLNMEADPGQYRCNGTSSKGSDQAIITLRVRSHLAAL

T3: Human CD147 (Uniprot P35613), recombinant protein (human, UniProt P35613 138-325)
T3 construct: also called recombinant CD147; CD147 protein
T3 sequence: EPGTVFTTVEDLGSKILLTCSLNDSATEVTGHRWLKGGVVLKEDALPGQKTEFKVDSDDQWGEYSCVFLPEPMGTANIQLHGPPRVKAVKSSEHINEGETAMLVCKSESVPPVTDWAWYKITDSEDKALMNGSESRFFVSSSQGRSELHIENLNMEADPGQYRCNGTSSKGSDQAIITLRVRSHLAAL


Experiments:
[1] = molecular target: T1, Murine CD147 (Uniprot P18572), …; experiment: ELISA, 100 ng murine CD147 coated, anti-flag detection
Procedure: For the ELISA, 100 ng of murine CD147 was coated onto Nunc polysorb plates overnight in 1× coating buffer. The wells were washed once with TBST (0.01% tween 20) and then blocked for 1 hour using 1× fishgel in TBST at room temperature (RT). Ibx-11, Ibx-13, Ibx-75, Ibx-76, Ibx-77, and anti-HIS antibody was incubated at 0.01-100 ng/well in 100 μl for 1 hour at RT before being washed 3× for 5 min each wash. The wells were incubated with anti-human for Ibx-11 & Ibx-13 treated wells and with anti-flag for Ibx-77, Ibx-75, Ibx-76 treated wells at 1:1000 dilution for 1 hour RT, and then washed 3× for 5 min each wash. The wells were incubated with 100p/Well of TMBE for 30 minutes and the reaction was stopped with 100p/Well of 2N sulphuric acid. Optical Density (OD) was measured using Biotek synergy 4 instrument for quantification.

[2] = molecular target: T2, Human CD147 (Uniprot P35613), …; experiment: SPR; kinetic model; Ibx-77 injected over immobilized CD147
[3] = molecular target: T2, Human CD147 (Uniprot P35613), …; experiment: SPR; steady state 1:1 fit; Ibx-77 injected over immobilized CD147
[4] = molecular target: T3, Human CD147 (Uniprot P35613), …; experiment: SPR, CD147 injected as analyte at 0-900 nM, kinetic model
Procedure: (§1) For this assay, CD147 was injected in HBS-EP buffer pH7.4 at concentrations ranging from 0 nM to 900 nM at 10 μl/min for 600 Seconds. Duplicate CD147 injections were carried out for 0, 9.22, […], 23.04, 57.6, 144, 360, 900 nM (a 2.5-fold dilution series). The chip surface was regenerated using 10 mM Glycine pH 2.0 @ 10 μl/min for 180 sec.
(§2) One technical replicate of 0 nm & 23.04 nM was excluded from analysis due to sudden air spikes and DIPs during analyte injection. Data were analyzed in Q-Dat software provided by instrument manufacturer. A steady state 1:1 fitting model (FIG. 4) was used for initial steady state binding analysis, and a simple Kd/Ka kinetic model (FIG. 5) was used to estimate KD.

[5] = molecular target: T3, Human CD147 (Uniprot P35613), …; experiment: SPR, CD147 injected as analyte at 0-900 nM, steady state 1:1 fit
Procedure: as §1, §2

[6] = molecular target: T3, Human CD147 (Uniprot P35613), …; experiment: SPR sensorgram, partly purified sample injected on a sensor chip; the chip's ligand is not stated
Procedure: Approximately 45 μl of Ibx-74 and Ibx-75 at various stages of purification were provided; 35 μl of each sample was injected on a sensor chip and sensograms were collected. The flow rate was 10 μ/minute, and the chip was regenerated with 10 mM Glycine at pH 1.5.

[7] = molecular target: T2, Human CD147 (Uniprot P35613), …; experiment: SPR

| Binder | binding result [1] | Kd [2] [nM] | Kd [3] [nM] | Kd [4] [nM] | koff [4] [s⁻¹] | kon [4] [M⁻¹ s⁻¹] | Kd [5] [nM] | koff [6] [s⁻¹] | Kd [7] [nM] |
| --- | --- | --- | --- | --- | --- | --- | --- | --- | --- |
| Ibx-77 (dimer of Ibx-14) (VHH, not shown: small tags and cut ends, Tandem bivalent VhH without Fc) QVQLVESGGGLVQAGDSLTLSCAASGRSLSSNAMGWFRQAPGKEREFVSGTTWHAGTQYYAYAADSVKGRFTTSRDNANTVSLQMKRLKPEDTAVYYCAAAVSGPGYDSWGQGTQVTVSSEPKIPQPQPKPQPQPQPQPQPKPQPEPQVQLVESGGGLVQAGDSLTLSCAASGRSLSSNAMGWFRQAPGKEREFVSGTTWHAGTQYYAYAADSVKGRFTTSRDNANTVSLQMKRLKPEDTAVYYCAAAVSGPGYDSWGQGTQVTVSS | no binding (tested: 0.01-100 ng/well) | 0.335 | 10.8 | 36.1 | 0.000489 | 13300 | 138 | – | – |
| Ibx-74 (dimer of Ibx-11) (VHH, Tandem bivalent VhH) QVRLEESGGGLVQAGGSLRLSCAASGLAFSIYGMGWFRQAPGKEREFVSVVDNTGSTTLYADSVKGRFTISRDNAKNTVYLQMSSLEPEDTAVYYCGAGPKNYLGSHEYAYWGQGTQVTVSSEPKIPQPQPKPQPQPQPQPQPKPQPEPQVRLEESGGGLVQAGGSLRLSCAASGLAFSIYGMGWFRQAPGKEREFVSVVDNTGSTTLYADSVKGRFTISRDNAKNTVYLQMSSLEPEDTAVYYCGAGPKNYLGSHEYAYWGQGTQVTVSS | – | – | – | – | – | – | – | 3e-05 | 0.0139 |

Now from value to binder:

| binding result [1] | Kd [2] [nM] | Kd [3] [nM] | Kd [4] [nM] | koff [4] [s⁻¹] | kon [4] [M⁻¹ s⁻¹] | Kd [5] [nM] | koff [6] [s⁻¹] | Kd [7] [nM] | Binder |
| --- | --- | --- | --- | --- | --- | --- | --- | --- | --- |
| no binding (tested: 0.01-100 ng/well) | – | – | – | – | – | – | 1e-06 | 0.000428 | Ibx-75 (dimer of Ibx-12) (VHH, Tandem bivalent VhH without Fc; also called tandem bivalent Ibx-75; not shown: Flag tag, since detection was with anti-flag) QVRLVESGGGLVQAGDSLRLSCQASGGTFTTYAMGWFRQAPGQEREFVSATTWSTGTSYYAYAADSVKGRFTTSRDNDNTVTLTMKRLKPDDTAVYYCSADPDGSDWAHSARQLRYWGQGTQVTVSSEPKIPQPQPKPQPQPQPQPQPKPQPEPQVRLVESGGGLVQAGDSLRLSCQASGGTFTTYAMGWFRQAPGQEREFVSATTWSTGTSYYAYAADSVKGRFTTSRDNDNTVTLTMKRLKPDDTAVYYCSADPDGSDWAHSARQLRYWGQGTQVTVSS |
| no binding (tested: 0.01-100 ng/well) | – | – | – | – | – | – | – | – | Ibx-76 (dimer of Ibx-13) (VHH, Tandem bivalent VhH without Fc; not shown: Flag tag, since detection was with anti-flag) QVQLVESGGGLVQPGGSLRLSCTASEDTFSTYAIGWFRQAPGQGREFVAGITANGIATRYNDSLKDRFTISRDNAKNTVYLQMNSLQPEDTAVYSCGADTRRFSLPSTVHEIDYWGQGTQVTVSSEPKIPQPQPKPQPQPQPQPQPKPQPEPQVQLVESGGGLVQPGGSLRLSCTASEDTFSTYAIGWFRQAPGQGREFVAGITANGIATRYNDSLKDRFTISRDNAKNTVYLQMNSLQPEDTAVYSCGADTRRFSLPSTVHEIDYWGQGTQVTVSS |
